{
  "source": "patent US20150023988A1",
  "assay_in_all_cases": "cell-based or functional assay",
  "key": {"[1]": {"biological_target": "human voltage-gated sodium channel Nav1.3 (human) (UniProt Q9NY46)"}, "[2]": {"biological_target": "human voltage-gated sodium channel Nav1.4 (human) (UniProt P35499)", "sequence (P35499 whole entry)": "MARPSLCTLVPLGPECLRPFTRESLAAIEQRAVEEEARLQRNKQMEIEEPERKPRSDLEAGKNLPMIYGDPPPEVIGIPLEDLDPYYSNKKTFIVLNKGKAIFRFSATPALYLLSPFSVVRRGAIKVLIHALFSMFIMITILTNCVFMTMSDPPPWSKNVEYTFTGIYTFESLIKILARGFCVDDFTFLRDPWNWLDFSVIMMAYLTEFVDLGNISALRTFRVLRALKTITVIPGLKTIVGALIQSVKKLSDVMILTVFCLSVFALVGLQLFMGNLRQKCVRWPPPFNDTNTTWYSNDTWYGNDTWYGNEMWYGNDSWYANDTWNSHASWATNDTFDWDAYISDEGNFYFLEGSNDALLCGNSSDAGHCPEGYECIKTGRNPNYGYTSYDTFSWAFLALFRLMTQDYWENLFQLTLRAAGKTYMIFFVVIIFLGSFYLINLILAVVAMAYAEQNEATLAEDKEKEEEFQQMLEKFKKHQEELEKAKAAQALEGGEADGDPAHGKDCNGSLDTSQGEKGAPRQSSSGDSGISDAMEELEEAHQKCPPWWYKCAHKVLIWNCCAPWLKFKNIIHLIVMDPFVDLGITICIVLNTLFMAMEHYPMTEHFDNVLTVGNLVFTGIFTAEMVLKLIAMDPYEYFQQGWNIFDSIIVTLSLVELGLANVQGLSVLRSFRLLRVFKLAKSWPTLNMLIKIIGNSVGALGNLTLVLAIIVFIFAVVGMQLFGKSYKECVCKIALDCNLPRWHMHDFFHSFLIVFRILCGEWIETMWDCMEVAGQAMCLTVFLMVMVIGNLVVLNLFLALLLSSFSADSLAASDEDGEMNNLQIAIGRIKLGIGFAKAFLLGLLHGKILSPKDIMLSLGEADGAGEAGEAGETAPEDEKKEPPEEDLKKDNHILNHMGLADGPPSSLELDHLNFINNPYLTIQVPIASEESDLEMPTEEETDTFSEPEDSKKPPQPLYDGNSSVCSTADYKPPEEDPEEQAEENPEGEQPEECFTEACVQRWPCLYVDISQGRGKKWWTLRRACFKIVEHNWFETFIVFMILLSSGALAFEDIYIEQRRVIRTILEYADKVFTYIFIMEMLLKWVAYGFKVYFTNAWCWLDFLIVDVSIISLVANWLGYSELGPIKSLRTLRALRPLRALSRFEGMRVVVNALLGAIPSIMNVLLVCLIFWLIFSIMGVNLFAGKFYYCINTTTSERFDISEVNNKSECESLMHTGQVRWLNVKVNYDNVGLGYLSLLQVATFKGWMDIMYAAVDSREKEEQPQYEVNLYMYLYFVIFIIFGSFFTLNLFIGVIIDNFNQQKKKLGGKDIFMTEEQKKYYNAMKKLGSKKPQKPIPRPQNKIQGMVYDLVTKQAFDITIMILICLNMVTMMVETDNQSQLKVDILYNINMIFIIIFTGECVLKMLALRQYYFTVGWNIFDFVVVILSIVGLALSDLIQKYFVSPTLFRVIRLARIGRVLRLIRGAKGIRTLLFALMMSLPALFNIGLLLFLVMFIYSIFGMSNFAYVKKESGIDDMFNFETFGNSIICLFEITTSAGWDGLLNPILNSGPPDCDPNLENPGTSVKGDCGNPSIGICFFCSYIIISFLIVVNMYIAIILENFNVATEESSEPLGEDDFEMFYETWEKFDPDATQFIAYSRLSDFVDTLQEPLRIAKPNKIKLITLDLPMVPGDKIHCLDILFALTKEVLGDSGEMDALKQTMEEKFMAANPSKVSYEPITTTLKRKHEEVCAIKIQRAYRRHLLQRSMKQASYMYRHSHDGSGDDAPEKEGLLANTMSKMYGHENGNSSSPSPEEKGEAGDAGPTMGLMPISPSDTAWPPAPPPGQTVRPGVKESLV"}, "[3]": {"biological_target": "human voltage-gated sodium channel Nav1.7 (human) (UniProt Q15858)", "sequence (Q15858 whole entry)": "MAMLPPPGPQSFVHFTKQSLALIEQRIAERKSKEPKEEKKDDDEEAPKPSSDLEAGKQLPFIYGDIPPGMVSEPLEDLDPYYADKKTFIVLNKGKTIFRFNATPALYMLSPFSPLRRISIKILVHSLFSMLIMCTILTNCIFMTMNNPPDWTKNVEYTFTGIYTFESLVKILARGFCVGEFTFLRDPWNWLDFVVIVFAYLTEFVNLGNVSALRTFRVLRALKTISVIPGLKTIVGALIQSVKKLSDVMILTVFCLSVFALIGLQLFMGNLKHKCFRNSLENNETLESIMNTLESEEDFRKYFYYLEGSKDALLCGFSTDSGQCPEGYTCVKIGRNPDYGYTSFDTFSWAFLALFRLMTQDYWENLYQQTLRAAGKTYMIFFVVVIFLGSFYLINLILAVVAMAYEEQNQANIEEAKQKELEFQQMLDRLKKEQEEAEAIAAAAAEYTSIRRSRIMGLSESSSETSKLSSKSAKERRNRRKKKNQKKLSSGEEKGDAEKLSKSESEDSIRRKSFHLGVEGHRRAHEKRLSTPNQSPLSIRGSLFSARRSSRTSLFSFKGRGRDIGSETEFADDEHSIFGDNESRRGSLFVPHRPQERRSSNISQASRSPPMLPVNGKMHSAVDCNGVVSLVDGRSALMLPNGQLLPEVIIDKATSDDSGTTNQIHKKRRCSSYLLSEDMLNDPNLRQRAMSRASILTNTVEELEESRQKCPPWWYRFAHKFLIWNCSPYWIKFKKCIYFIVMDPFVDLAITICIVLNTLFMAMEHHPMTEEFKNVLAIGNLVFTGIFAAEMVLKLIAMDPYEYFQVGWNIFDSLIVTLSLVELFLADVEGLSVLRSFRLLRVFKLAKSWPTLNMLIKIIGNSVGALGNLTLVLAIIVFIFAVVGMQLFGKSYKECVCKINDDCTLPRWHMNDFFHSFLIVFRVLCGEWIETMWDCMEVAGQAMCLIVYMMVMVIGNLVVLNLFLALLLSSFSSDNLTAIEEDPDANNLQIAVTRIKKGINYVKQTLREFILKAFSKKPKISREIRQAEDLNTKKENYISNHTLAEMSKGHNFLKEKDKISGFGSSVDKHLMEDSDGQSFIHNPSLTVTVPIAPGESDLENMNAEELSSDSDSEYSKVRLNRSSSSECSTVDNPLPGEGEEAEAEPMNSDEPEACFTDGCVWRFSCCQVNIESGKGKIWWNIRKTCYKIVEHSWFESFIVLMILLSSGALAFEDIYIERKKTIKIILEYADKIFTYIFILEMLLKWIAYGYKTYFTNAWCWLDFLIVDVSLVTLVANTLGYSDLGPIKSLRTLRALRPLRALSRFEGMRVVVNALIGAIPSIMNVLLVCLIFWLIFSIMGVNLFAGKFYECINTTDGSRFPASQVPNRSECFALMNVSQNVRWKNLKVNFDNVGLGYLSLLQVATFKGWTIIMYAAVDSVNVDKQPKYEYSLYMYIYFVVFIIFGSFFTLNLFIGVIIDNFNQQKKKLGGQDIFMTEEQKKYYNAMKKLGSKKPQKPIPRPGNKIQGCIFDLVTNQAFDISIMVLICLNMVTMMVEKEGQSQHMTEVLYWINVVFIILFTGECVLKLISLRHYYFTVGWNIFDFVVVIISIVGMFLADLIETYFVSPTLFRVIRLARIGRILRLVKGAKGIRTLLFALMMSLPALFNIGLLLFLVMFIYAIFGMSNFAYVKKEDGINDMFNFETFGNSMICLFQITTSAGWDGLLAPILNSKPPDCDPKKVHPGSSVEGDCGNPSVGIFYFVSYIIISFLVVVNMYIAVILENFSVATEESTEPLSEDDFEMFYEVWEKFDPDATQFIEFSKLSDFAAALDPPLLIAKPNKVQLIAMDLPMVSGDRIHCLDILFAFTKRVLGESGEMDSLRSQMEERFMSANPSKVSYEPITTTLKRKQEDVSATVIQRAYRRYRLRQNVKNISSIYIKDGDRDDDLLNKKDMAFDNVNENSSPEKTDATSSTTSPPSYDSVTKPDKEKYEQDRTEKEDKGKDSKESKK"}, "[4]": {"biological_target": "human voltage-gated sodium channel Nav1.5 (human) (UniProt Q14524)"}, "[5]": {"biological_target": "human voltage-gated sodium channel Nav1.4 (human) (UniProt P35499)", "remark": "listed apart in the source"}, "[6]": {"biological_target": "human voltage-gated sodium channel Nav1.7 (human) (UniProt Q15858)", "remark": "listed apart in the source"}, "[7]": {"biological_target": "human voltage-gated sodium channel Nav1.5 (human) (UniProt Q14524)", "remark": "listed apart in the source"}},
  "note": "Read-outs that look alike come from different tables or passages of the source.",
  "data": [
    {"substance": "[Nva7;Glu20;Tyr28]JzTx-V(1-29) (peptide)", "values": [
      {"measurement": "IC50 (IonWorks Quattro)", "setting": "[1]", "value": "> 7", "unit": "µM"},
      {"measurement": "IC50 (IonWorks Quattro)", "setting": "[2]", "value": "> 7", "unit": "µM"},
      {"measurement": "IC50 (IonWorks Quattro)", "setting": "[3]", "value": 4.5, "unit": "µM"},
      {"measurement": "IC50 (IonWorks Quattro)", "setting": "[4]", "value": "> 7", "unit": "µM"}
    ]},
    {"substance": "[Nle6; Pra14; Glu20]JzTx-V(1-29) (peptide)", "values": [
      {"measurement": "PX hNav1.4 Tonic IC50", "setting": "[5]", "value": 1.66, "unit": "µM"},
      {"measurement": "PX hNav1.7 Tonic IC50", "setting": "[6]", "value": 0.00716, "unit": "µM"},
      {"measurement": "PX hNav1.5 Tonic IC50", "setting": "[7]", "value": 4.57, "unit": "µM"}
    ]},
    {"substance": "[Nle6; Pra11; Glu20; Tyr28]JzTx-V(1-29) (peptide)", "values": [
      {"measurement": "PX hNav1.4 Tonic IC50", "setting": "[5]", "value": 0.825, "unit": "µM"},
      {"measurement": "PX hNav1.7 Tonic IC50", "setting": "[6]", "value": 0.00128, "unit": "µM"},
      {"measurement": "PX hNav1.5 Tonic IC50", "setting": "[7]", "value": 2.46, "unit": "µM"}
    ]},
    {"substance": "[Cit7;Glu20;Tyr28]JzTx-V(1-29) (peptide)", "values": [
      {"measurement": "IC50 (IonWorks Quattro)", "setting": "[1]", "value": "> 7", "unit": "µM"},
      {"measurement": "IC50 (IonWorks Quattro)", "setting": "[2]", "value": "> 7", "unit": "µM"},
      {"measurement": "IC50 (IonWorks Quattro)", "setting": "[3]", "value": 5.8, "unit": "µM"},
      {"measurement": "IC50 (IonWorks Quattro)", "setting": "[4]", "value": "> 7", "unit": "µM"}
    ]},
    {"substance": "[Nle6; Pra14; Glu20; Tyr28]JzTx-V(1-29) (peptide)", "values": [
      {"measurement": "PX hNav1.4 Tonic IC50", "setting": "[5]", "value": 0.707, "unit": "µM"},
      {"measurement": "PX hNav1.7 Tonic IC50", "setting": "[6]", "value": 0.00176, "unit": "µM"},
      {"measurement": "PX hNav1.5 Tonic IC50", "setting": "[7]", "value": 3.69, "unit": "µM"}
    ]},
    {"substance": "[Nle6; Pra11; Glu20]JzTx-V(1-29) (peptide)", "values": [
      {"measurement": "PX hNav1.4 Tonic IC50", "setting": "[5]", "value": 4.22, "unit": "µM"},
      {"measurement": "PX hNav1.7 Tonic IC50", "setting": "[6]", "value": 0.0184, "unit": "µM"},
      {"measurement": "PX hNav1.5 Tonic IC50", "setting": "[7]", "value": 3.55, "unit": "µM"}
    ]},
    {"substance": "[Nle6;Pra11;Glu20;Trp29]JzTx-V(1-29) (peptide)", "values": [
      {"measurement": "IC50 (IonWorks Quattro)", "setting": "[6]", "value": 0.026, "unit": "µM"}
    ]},
    {"substance": "[Nle6; AzK11; Glu20; Trp29]JzTx-V(1-29) (peptide)", "values": [
      {"measurement": "PX hNav1.7 Tonic IC50", "setting": "[6]", "value": 0.435, "unit": "µM"}
    ]}
  ]
}
